Reference: patent publication US20240382610A1 (TALLAC THERAPEUTICS, published 2024)

T1: Human nectin-4 ECD-6His (TNT-175) (human, UniProt Q96NY8 32-349)
T1 construct: the entry holds the extracellular domain with the C-terminal 6His tag
T1 sequence: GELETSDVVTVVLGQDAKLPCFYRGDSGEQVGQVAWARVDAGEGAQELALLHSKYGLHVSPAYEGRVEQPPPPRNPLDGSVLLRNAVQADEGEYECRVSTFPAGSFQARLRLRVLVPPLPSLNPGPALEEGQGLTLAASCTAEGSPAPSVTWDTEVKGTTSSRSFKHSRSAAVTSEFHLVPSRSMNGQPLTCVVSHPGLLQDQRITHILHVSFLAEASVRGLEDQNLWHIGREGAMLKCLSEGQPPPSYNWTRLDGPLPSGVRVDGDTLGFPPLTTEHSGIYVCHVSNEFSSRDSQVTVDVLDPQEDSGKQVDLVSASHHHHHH

T2: Mouse nectin-4 ECD-6His (TNT-250) (mouse, UniProt Q8R007 31-347)
T2 construct: entry includes the 6His tag; also called mouse nectin-4-LCD
T2 sequence: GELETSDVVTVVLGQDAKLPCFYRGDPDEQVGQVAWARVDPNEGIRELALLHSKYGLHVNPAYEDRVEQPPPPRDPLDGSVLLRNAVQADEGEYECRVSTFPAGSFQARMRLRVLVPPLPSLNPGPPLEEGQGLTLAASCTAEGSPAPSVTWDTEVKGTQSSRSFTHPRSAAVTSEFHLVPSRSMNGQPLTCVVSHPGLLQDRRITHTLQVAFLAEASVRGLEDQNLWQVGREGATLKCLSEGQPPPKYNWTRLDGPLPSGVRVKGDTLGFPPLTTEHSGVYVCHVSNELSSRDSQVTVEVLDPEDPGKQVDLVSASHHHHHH

T3: Human nectin-4-IgV-6His (TNT-252) (human, UniProt Q96NY8 32-147)
T3 construct: entry includes the 6His tag
T3 sequence: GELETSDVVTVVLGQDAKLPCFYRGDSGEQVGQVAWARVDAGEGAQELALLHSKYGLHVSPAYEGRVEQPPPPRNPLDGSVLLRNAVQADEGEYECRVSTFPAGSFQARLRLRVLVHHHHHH

T4: Cyno nectin-4 ECD-6His (TNT-255) (cynomolgus, UniProt Q96NY8 32-349 (human entry))
T4 construct: entry includes the 6His tag
T4 chain: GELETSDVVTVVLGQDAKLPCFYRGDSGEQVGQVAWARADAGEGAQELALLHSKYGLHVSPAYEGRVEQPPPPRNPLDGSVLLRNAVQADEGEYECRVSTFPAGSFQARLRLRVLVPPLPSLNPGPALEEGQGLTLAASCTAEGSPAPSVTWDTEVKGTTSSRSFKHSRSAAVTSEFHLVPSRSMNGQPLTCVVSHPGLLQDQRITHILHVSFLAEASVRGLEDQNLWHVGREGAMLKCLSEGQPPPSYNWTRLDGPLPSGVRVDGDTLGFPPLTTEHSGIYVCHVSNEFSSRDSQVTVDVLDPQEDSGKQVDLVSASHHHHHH


Legend:
[1] = target: T1, Human nectin-4 ECD-6His (TNT-175); assay: SPR Biacore 8K
Experimental: (§1) Further testing of select nectin-4 antibodies to human, mouse and cyno nectin-4. Additional assessment of the nectin-4 antibodies was performed to measure binding to human, mouse, and cynomolgus nectin-4. Biacore 8K (Cytiva, Marlborough, MA) was used to further characterize binding of four of the nectin-4 monoclonal antibodies.
(§2) All experiments were performed at 25° C. temperature and in HBS-EP+ run buffer (10 mM HEPES, pH 7.4, 150 mM NaCl, 3 mM EDTA, 0.05% Tween-20). The antibodies were captured or immobilized on a Biacore chip either through amine-coupling method on a CM5 or captured by ProteinA chip or captured by anti-mouse polyclonal antibody or anti-human polyclonal antibody. […] The data were processed and analyzed in Biacore Insight Evaluation Software using double-reference subtraction of the data and then fitted to a simple Langmuir binding model using global kinetic rate constants for association (Kₐ), dissociation (Kd), and Rₘₐₓ values per sample. Fit quality was determined by inspection of the residuals and of statistical T values and the equilibrium dissociation (or affinity) constant was deduced by the ratio of the kinetic rate constants. KD=Kd/Kₐ.

[2] = target: T2, Mouse nectin-4 ECD-6His (TNT-250); assay: SPR Biacore 8K
Experimental: as §1, §2

[3] = target: T3, Human nectin-4-IgV-6His (TNT-252); assay: SPR Biacore 8K
Experimental: as §1, §2

[4] = target: T4, Cyno nectin-4 ECD-6His (TNT-255); assay: SPR Biacore 8K
Experimental: as §1, §2

[5] = target: T1, Human nectin-4 ECD-6His (TNT-175); assay: SPR Biacore 8K, mAb on protein A
Experimental: (§3) The running buffer was 10 mM HEPES, pH 7.4, 150 mM NaCl, 3 mM EDTA, 0.05% (v/v) Surfactant P20 (HBS-EP+). […] The nectin-4 analytes were injected in either single-cycle kinetics or multi-cycle kinetics mode at nominal starting concentrations of 300 nM or 900 nM with 3-fold serial dilutions. Association times were monitored for 120 s, and dissociation times were monitored 1800 s at 30 μL/min flow rate. The surfaces were regenerated with 10 mM glycine at pH1.7 or 75 mM phosphoric acid at pH1.6 for two pulses of 15 s at 30 μL/min flow rate.
(§4) The data were processed and analyzed with Biacore 8K Evaluation Software Version 3.0.12.15655 (Cytiva, Global Life Sciences Solutions USA LLC, Marlborough, MA). […] The responses from the nearest buffer blank injection were then subtracted from the reference subtracted data (2-1) to yield double-referenced data. These double-reference data were fit to a simple 1:1 Langmuir binding model with mass transport to determine the apparent association (ka) and dissociation rate constants (kd). The apparent equilibrium dissociation constant or affinity constant was then calculated based on their ratio as (KD=kd/ka).

[6] = target: T2, Mouse nectin-4 ECD-6His (TNT-250); assay: SPR Biacore 8K, mAb on protein A
Experimental: as §3, §4

[7] = target: T3, Human nectin-4-IgV-6His (TNT-252); assay: SPR Biacore 8K, mAb on protein A
Experimental: as §3, §4

[8] = target: T4, Cyno nectin-4 ECD-6His (TNT-255); assay: SPR Biacore 8K, mAb on protein A
Experimental: as §3, §4

[9] = target: T1, Human nectin-4 ECD-6His (TNT-175); assay: SPR Biacore 8K, mAb on protein A; remark: listed apart in the source

| Binder | Kd [1] [nM] | Kd [2] [nM] | Kd [3] [nM] | Kd [4] [nM] | Kd [5] [nM] | Kd [6] [nM] | Kd [7] [nM] | Kd [8] [nM] | binding result [6] | Kd [9] [nM] |
| --- | --- | --- | --- | --- | --- | --- | --- | --- | --- | --- |
| TNT-203 (antibody, human IgG1, kappa) heavy: not shown light: EIVLTQSPATLSLSPGERATLSCRASQSVSSYLAWYQQKPGQAPRLLIYDASNRATGIPARFSGSGSGTDFTLTISSLQAEDFATYYCQQSYSTRFGGGTKVEIKRTVAAPSVFIFPPSDEQLKSGTASVVCLLNNFYPREAKVQWKVDNALQSGNSQESVTEQDSKDSTYSLSSTLTLSKADYEKHKVYACEVTHQGLSSPVTKSFNRGEC | 70 | 115 | 138 | 172 | 101 | 196 | 138 | 172 |  |  |
| TNT-212 (antibody, human IgG1, kappa, also called TNT-154) heavy: not shown light: DIQMTQSPSSVSASVGDRVTITCRASQGISGWLAWYQQKPGKAPKFLIYAASTLQSGVPSRFSGSGSGTDFTLTISSLQPEDFATYYCQQANSFPPTFGGGTKVEIKRTVAAPSVFIFPPSDEQLKSGTASVVCLLNNFYPREAKVQWKVDNALQSGNSQESVTEQDSKDSTYSLSSTLTLSKADYEKHKVYACEVTHQGLSSPVTKSFNRGEC | 8 |  | 10 | 40 | 8.69 |  | 9.88 | 40.5 | binds |  |
| TNT-207 (antibody, human IgG1, kappa) heavy: not shown light: DIQMTQSPSSLSASVGDRVTITCRASQGISNYLAWFQQKPGKAPKSLISAASSLQSGVPSRFSGSGSGTDFTLTISSLQPEDFATYYCLQHDSFPITFGGGTKLEIKRTVAAPSVFIFPPSDEQLKSGTASVVCLLNNFYPREAKVQWKVDNALQSGNSQESVTEQDSKDSTYSLSSTLTLSKADYEKHKVYACEVTHQGLSSPVTKSFNRGEC | 1.5 | 6 | 1.8 | 4.2 | 1.37 | 5.07 | 1.77 | 4.19 |  | 1 |
